Experimental data reported in patent US10413588B2, “Probiotic function of human intelectin” (Wisconsin Alumni Research Foundation, priority 2015, dated 2019).
Values joined by “and” are separate entries in the source; they are usually repeats but may differ in a detail not shown here. Identical values can stand only once.

Key:
[1] = system: infant male fecal microbiome; assay: Flow cytometry binding to infant fecal microbiome; parameters: species or system human; settings: fecal sample, 15 μg/mL intelectin + 10 mM CaCl2
Experimental: Human fecal samples provide a non-invasive proxy of the intestinal microbiome of a patient. The inventors have isolated the intestinal microbiome from human fecal samples and analyzed it for hIntL-1 binding. The isolated microbiome was fixed using an aqueous solution of 1% formaldehyde. Cells were stained as described elsewhere, using either a solution including calcium ions (100 mM) or one containing the calcium ion chelator EDTA. Microbes were exposed to 20 mM HEPES (pH 7.2), 150 mM NaCl, 10 mM CaCl2, 15 μg/mL Strep-tagged-hIntL-1, 0.1% bovine serum albumin (BSA), 0.05% tween-20, 2 μg/mL StrepMAB Classic conjugated to Oyster 645 (IBA Lifesciences, cat. no.: 2-1555-050). […] Cells are analyzed consecutively on a BD LSRII flow cytometer using identical instrument setting. […]
Humans have two intelectins: hIntL-1 and human intelectin-2 (hIntL-2). […] To compare hIntL-1 and hIntL02, the inventors isolated the intestinal mirobiome from human feces and analyzed it for hIntL-2 binding. […] The samples were processed and analyzed as described above. Cells were analyzed consecutively on a BD LSRII flow cytometer using identical instrument setting. […]

[2] = Mouse intelectin-1 SPR on immobilized carbohydrates; type: binding; settings: referenced to biotin channel
From the text: FIG. 23. Mouse intelectin-1 binding to immobilized carbohydrates. Purified Strep-mIntL-1 binding to immobilized carbohydrates monitored using SPR. […] Data are referenced to the biotin channel.

Molecule	fraction of cells of the infant microbiome bound by the intelectin [1]	carbohydrate binding on addition of EDTA [2]
hIntL-2: human intelectin-2, accession no. Q8WWU7, highly homologous to hIntL-1 (protein, listed as Homo sapiens) MLSMLRTMTRLCFLLFFSVATSGCSAAAASSLEMLSREFETCAFSFSSLPRSCKEIKERCHSAGDGLYFLRTKNGVVYQTFCDMTSGGGGWTLVASVHENDMRGKCTVGDRWSSQQGNKADYPEGDGNWANYNTFGSAEAATSDDYKNPGYYDIQAKDLGIWHVPNKSPMQHWRNSALLRYRTNTGFLQRLGHNLFGIYQKYPVKYRSGKCWNDNGPAIPVVYDFGDAKKTASYYSPYGQREFVAGFVQFRVFNNERAANALCAGIKVTGCNTEHHCIGGGGFFPQGKPRQCGDFSAFDWDGYGTHVKSSCSREITEAAVLLFYR	~32% and 32.2%	–
Strep-mIntL-1: purified Strep-tagged mouse intelectin-1 (protein, UniProt O88310 19-298, looked up, Strep-tag) Intelectin-1a: AAEENLDTNRWGNSFFSSLPRSCKEIKQEHTKAQDGLYFLRTKNGVIYQTFCDMTTAGGGWTLVASVHENNMRGKCTVGDRWSSQQGNRADYPEGDGNWANYNTFGSAEAATSDDYKNPGYFDIQAENLGIWHVPNKSPLHNWRKSSLLRYRTFTGFLQHLGHNLFGLYKKYPVKYGEGKCWTDNGPALPVVYDFGDARKTASYYSPSGQREFTAGYVQFRVFNNERAASALCAGVRVTGCNTEHHCIGGGGFFPEGNPVQCGDFASFDWDGYGTHNGYS	–	prevents carbohydrate binding
